# Measurements reported in US20110217291A1 (ZymoGenetics, published 2011).
# Legend:
# Test in all cases: cell-based or functional assay
# [1] = target: rabbit polyclonal anti-OVA antibodies
# [2] = target: rabbit polyclonal anti-OVA antibodies; remark: listed apart in the source
# [3] = target: rabbit polyclonal anti-OVA antibodies; remark: listed apart in the source
# [4] = target: rabbit polyclonal anti-OVA antibodies; remark: listed apart in the source
Binder,IC50 (read off the curve); MCP-1 secretion by MC/9 mast cells stimulated with anti-OVA/OVA immune complexes [1] [pmol],IC50 (read off the curve); IL-6 secretion by MC/9 mast cells stimulated with anti-OVA/OVA immune complexes [2] [pmol],IC50 (read off the curve); IL-13 secretion by MC/9 mast cells stimulated with anti-OVA/OVA immune complexes [3] [pmol],IC50 (read off the curve); TNF-α secretion by MC/9 mast cells stimulated with anti-OVA/OVA immune complexes [4] [pmol]
"untagged recombinant soluble human FcγRIA (receptor, N-terminal pyro-glutamic acid, converted from the glutamine at position 16) QVDTTKAVITLQPPWVSVFQEETVTLHCEVLHLPGSSSTQWFLNGTATQTSTPSYRITSASVNDSGEYRCQRGLSGRSDPIQLEIHRGWLLLQVSSRVFTEGEPLALRCHAWKDKLVYNVLYYRNGKAFKFFHWNSNLTILKTNISHNGTYHCSGMGKHRYTSAGISVTVKELFPAPVLNASVTSPLLEGNLVTLSCETKLLLQRPGLQLYFSFYMGSKTLRGRNTSSEYQILTARREDSGLYWCEAATEDGNVLKRSPELELQVLG",~2,~1,~1,~1
"FcγRIIIA/RIA-CH6 (soluble hybrid receptor: first Ig domain of FcγRIIIA followed by second and third Ig domains of FcγRIA, C-terminal six His tag) (receptor) EDLPKAVVFLEPQWYRVLEKDSVTLKCQGAYSPEDNSTQWFHNESLISSQASSYFIDAATVDDSGEYRCQTNLSTLSDPVQLEVHIGWLLLQVSSRVFTEGEPLALRCHAWKDKLVYNVLYYRNGKAFKFFHWNSNLTILKTNISHNGTYHCSGMGKHRYTSAGISVTVKELFPAPVLNASVTSPLLEGNLVTLSCETKLLLQRPGLQLYFSFYMGSKTLRGRNTSSEYQILTARREDSGLYWCEAATEDGNVLKRSPELELQVLGGSGGHHHHHH",~2,~2,~1,~1
"FcγRIIA/RIA-CH6 (soluble hybrid receptor: first Ig domain of FcγRIIA followed by second and third Ig domains of FcγRIA, C-terminal six His tag) (receptor) AAPPKAVLKLEPPWINVLQEDSVTLTCQGARSPESDSIQWFHNGNLIPTHTQPSYRFKANNNDSGEYTCQTGQTSLSDPVHLTVLSEWLLLQVSSRVFTEGEPLALRCHAWKDKLVYNVLYYRNGKAFKFFHWNSNLTILKTNISHNGTYHCSGMGKHRYTSAGISVTVKELFPAPVLNASVTSPLLEGNLVTLSCETKLLLQRPGLQLYFSFYMGSKTLRGRNTSSEYQILTARREDSGLYWCEAATEDGNVLKRSPELELQVLGGSGGHHHHHH",~2,~2,~2,~2
